In patent publication US20150361184:

Molecular target: T1, Flag-tagged kinase dead murine DLK S302A, not phosphorylated at T43, S272 and S533
T1 chain: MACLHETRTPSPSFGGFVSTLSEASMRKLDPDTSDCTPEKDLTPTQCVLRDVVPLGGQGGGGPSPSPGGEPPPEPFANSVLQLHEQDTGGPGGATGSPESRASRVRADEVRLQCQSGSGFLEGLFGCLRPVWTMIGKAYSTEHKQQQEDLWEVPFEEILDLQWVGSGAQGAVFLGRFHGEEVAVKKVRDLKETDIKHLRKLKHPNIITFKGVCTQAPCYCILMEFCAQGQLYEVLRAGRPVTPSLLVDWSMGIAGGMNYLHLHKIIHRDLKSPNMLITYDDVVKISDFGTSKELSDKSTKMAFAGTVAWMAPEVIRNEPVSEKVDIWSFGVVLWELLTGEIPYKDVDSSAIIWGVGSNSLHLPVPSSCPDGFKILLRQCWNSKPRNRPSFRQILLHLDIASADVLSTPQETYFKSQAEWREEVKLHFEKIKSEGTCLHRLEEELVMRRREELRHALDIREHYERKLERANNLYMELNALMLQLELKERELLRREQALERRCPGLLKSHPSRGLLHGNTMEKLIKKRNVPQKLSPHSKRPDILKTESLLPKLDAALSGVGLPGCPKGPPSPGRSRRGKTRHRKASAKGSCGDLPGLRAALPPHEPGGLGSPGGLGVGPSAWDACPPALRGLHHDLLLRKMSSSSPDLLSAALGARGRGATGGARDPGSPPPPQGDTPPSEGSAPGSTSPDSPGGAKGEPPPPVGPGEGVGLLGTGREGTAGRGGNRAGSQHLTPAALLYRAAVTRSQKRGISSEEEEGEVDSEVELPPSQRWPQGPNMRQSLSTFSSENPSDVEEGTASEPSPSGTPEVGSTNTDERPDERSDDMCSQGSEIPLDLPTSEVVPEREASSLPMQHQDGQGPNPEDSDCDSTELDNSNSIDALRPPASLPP

B1: GST-tagged human recombinant JNK3 (Millipore) (protein)
chain: MSLHFLYYCSEPTLDVKIAFCQGFDKQVDVSYIAKHYNMSKSKVDNQFYSVEVGDSTFTVLKRYQNLKPIGSGAQGIVCAAYDAVLDRNVAIKKLSRPFQNQTHAKRAYRELVLMKCVNHKNIISLLNVFTPQKTLEEFQDVYLVMELMDANLCQVIQMELDHERMSYLLYQMLCGIKHLHSAGIIHRDLKPSNIVVKSDCTLKILDFGLARTAGTSFMMTPYVVTRYYRAPEVILGMGYKENVDIWSVGCIMGEMVRHKILFPGRDYIDQWNKVIEQLGTPCPEFMKKLQPTVRNYVENRPKYAGLTFPKLFPDSLFPADSEHNKLKASQARDLLSKMLVIDPAKRISVDDALQHPYINVWYDPAEVEAPPPQIYDKQLDEREHTIEEWKELIYKEVMNSEEKTKNGVVKGQPSPSGAAVNSSESLPPSSSVNDISSMSTDQTLASDTDSSLEASAGPLGCCR
in vitro kinase assay; phosphorylation of T43 and S533 read by blotting with phospho-specific antibodies: both T43 and S533 can be phosphorylated directly by JNK
